{"source": "paper PMC2586830", "about": "(Molecular Microbiology, 2008)", "molecules": {"B1": {"name": "CFP–TorR / YFP–TorR, phosphorylated (natural protein)", "chain": "MPHHIVIVEDEPVTQARLQSYFTQEGYTVSVTASGAGLREIMQNQSVDLILLDINLPDENGLMLTRALRERSTVGIILVTGRSDRIDRIVGLEMGADDYVTKPLELRELVVRVKNLLWRIDLARQAQPHTQDNCYRFAGYCLNVSRHTLERDGEPIKLTRAEYEMLVAFVTNPGEILSRERLLRMLSARRVENPDLRTVDVLIRRLRHKLSADLLVTQHGEGYFLAADVC", "modifications": "phosphorylated in vitro with phosphoramidate and MgSO4 (conserved aspartate of the receiver domain; residue number not given)"}, "B2": {"name": "CFP–CpxR / YFP–CpxR, phosphorylated (natural protein)", "chain": "MNKILLVDDDRELTSLLKELLEMEGFNVIVAHDGEQALDLLDDSIDLLLLDVMMPKKNGIDTLKALRQTHQTPVIMLTARGSELDRVLGLELGADDYLPKPFNDRELVARIRAILRRSHWSEQQQNNDNGSPTLEVDALVLNPGRQEASFDGQTLELTGTEFTLLYLLAQHLGQVVSREHLSQEVLGKRLTPFDRAIDMHISNLRRKLPDRKDGHPWFKTLRGRGYLMVSAS", "modifications": "phosphorylated in vitro with phosphoramidate and MgSO4 (conserved aspartate of the receiver domain; residue number not given)"}, "B3": {"name": "CFP–CreB / YFP–CreB, phosphorylated (natural protein)", "chain": "MQRETVWLVEDEQGIADTLVYMLQQEGFAVEVFERGLPVLDKARKQVPDVMILDVGLPDISGFELCRQLLALHPALPVLFLTARSEEVDRLLGLEIGADDYVAKPFSPREVCARVRTLLRRVKKFSTPSPVIRIGHFELNEPAAQISWFDTPLALTRYEFLLLKTLLKSPGRVWSRQQLMDSVWEDAQDTYDRTVDTHIKTLRAKLRAINPDLSPINTHRGMGYSLRGL", "modifications": "phosphorylated in vitro with phosphoramidate and MgSO4 (conserved aspartate of the receiver domain; residue number not given)"}, "B4": {"name": "CFP–BaeR / YFP–BaeR, phosphorylated (natural protein)", "chain": "MTELPIDENTPRILIVEDEPKLGQLLIDYLRAASYAPTLISHGDQVLPYVRQTPPDLILLDLMLPGTDGLTLCREIRRFSDIPIVMVTAKIEEIDRLLGLEIGADDYICKPYSPREVVARVKTILRRCKPQRELQQQDAESPLIIDEGRFQASWRGKMLDLTPAEFRLLKTLSHEPGKVFSREQLLNHLYDDYRVVTDRTIDSHIKNLRRKLESLDAEQSFIRAVYGVGYRWEADACRIV", "modifications": "phosphorylated in vitro with phosphoramidate and MgSO4 (conserved aspartate of the receiver domain; residue number not given)"}, "B5": {"name": "CFP–ArcA / YFP–ArcA, phosphorylated (natural protein)", "chain": "MQTPHILIVEDELVTRNTLKSIFEAEGYDVFEATDGAEMHQILSEYDINLVIMDINLPGKNGLLLARELREQANVALMFLTGRDNEVDKILGLEIGADDYITKPFNPRELTIRARNLLSRTMNLGTVSEERRSVESYKFNGWELDINSRSLIGPDGEQYKLPRSEFRAMLHFCENPGKIQSRAELLKKMTGRELKPHDRTVDVTIRRIRKHFESTPDTPEIIATIHGEGYRFCGDLED", "modifications": "phosphorylated in vitro with phosphoramidate and MgSO4 (conserved aspartate of the receiver domain; residue number not given)"}, "B6": {"name": "CFP–QseB / YFP–QseB, phosphorylated (natural protein)", "chain": "MRILLIEDDMLIGDGIKTGLSKMGFSVDWFTQGRQGKEALYSAPYDAVILDLTLPGMDGRDILREWREKGQREPVLILTARDALAERVEGLRLGADDYLCKPFALIEVAARLEALMRRTNGQASNELRHGNVMLDPGKRIATLAGEPLTLKPKEFALLELLMRNAGRVLSRKLIEEKLYTWDEEVTSNAVEVHVHHLRRKLGSDFIRTVHGIGYTLGEK", "modifications": "phosphorylated in vitro with phosphoramidate and MgSO4 (conserved aspartate of the receiver domain; residue number not given)"}, "B7": {"name": "CFP–PhoP / YFP–PhoP, phosphorylated (natural protein)", "chain": "MRVLVVEDNALLRHHLKVQIQDAGHQVDDAEDAKEADYYLNEHIPDIAIVDLGLPDEDGLSLIRRWRSNDVSLPILVLTARESWQDKVEVLSAGADDYVTKPFHIEEVMARMQALMRRNSGLASQVISLPPFQVDLSRRELSINDEVIKLTAFEYTIMETLIRNNGKVVSKDSLMLQLYPDAELRESHTIDVLMGRLRKKIQAQYPQEVITTVRGQGYLFELR", "modifications": "phosphorylated in vitro with phosphoramidate and MgSO4 (conserved aspartate of the receiver domain; residue number not given)"}, "B8": {"name": "CFP–KdpE / YFP–KdpE, phosphorylated (natural protein)", "chain": "MTNVLIVEDEQAIRRFLRTALEGDGMRVFEAETLQRGLLEAATRKPDLIILDLGLPDGDGIEFIRDLRQWSAVPVIVLSARSEESDKIAALDAGADDYLSKPFGIGELQARLRVALRRHSATTAPDPLVKFSDVTVDLAARVIHRGEEEVHLTPIEFRLLAVLLNNAGKVLTQRQLLNQVWGPNAVEHSHYLRIYMGHLRQKLEQDPARPRHFITETGIGYRFML", "modifications": "phosphorylated in vitro with phosphoramidate and MgSO4 (conserved aspartate of the receiver domain; residue number not given)"}, "B9": {"name": "CFP–CusR / YFP–CusR, phosphorylated (natural protein)", "chain": "MKLLIVEDEKKTGEYLTKGLTEAGFVVDLADNGLNGYHLAMTGDYDLIILDIMLPDVNGWDIVRMLRSANKGMPILLLTALGTIEHRVKGLELGADDYLVKPFAFAELLARVRTLLRRGAAVIIESQFQVADLMVDLVSRKVTRSGTRITLTSKEFTLLEFFLRHQGEVLPRSLIASQVWDMNFDSDTNAIDVAVKRLRGKIDNDFEPKLIQTVRGVGYMLEVPDGQ", "modifications": "phosphorylated in vitro with phosphoramidate and MgSO4 (conserved aspartate of the receiver domain; residue number not given)"}}, "key": {"[1]": {"target": "PhoB (Escherichia coli) (UniProt P0AFJ5)", "sequence (P0AFJ5 whole entry)": "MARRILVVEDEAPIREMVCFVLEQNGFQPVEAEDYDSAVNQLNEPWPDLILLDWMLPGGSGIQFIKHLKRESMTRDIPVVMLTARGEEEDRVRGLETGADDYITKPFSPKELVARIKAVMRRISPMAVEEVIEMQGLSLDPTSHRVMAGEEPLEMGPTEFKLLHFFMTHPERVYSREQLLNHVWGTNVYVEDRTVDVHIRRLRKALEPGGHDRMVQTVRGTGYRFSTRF", "details": "cited from earlier work"}, "[2]": {"target": "PhoB (Escherichia coli) (UniProt P0AFJ5)", "experiment": "analytical ultracentrifugation", "details": "cited from earlier work"}, "[3]": {"target": "the molecule itself", "experiment": "FRET or BRET"}}, "note": "Read-outs that look alike come from different tables or passages of the source."}
{"molecule": "PhoB (from UniProt P0AFJ5)", "values": [{"measurement": "Kd", "setting": "[1]", "result": 378, "unit": "µM"}, {"measurement": "Kd", "setting": "[2]", "result": 5.1, "unit": "µM"}]}
{"molecule": "B1", "values": [{"measurement": "binding result", "setting": "[3]", "result": "binds"}]}
{"molecule": "B2", "values": [{"measurement": "binding result", "setting": "[3]", "result": "binds"}]}
{"molecule": "B3", "values": [{"measurement": "binding result", "setting": "[3]", "result": "binds"}]}
{"molecule": "B4", "values": [{"measurement": "binding result", "setting": "[3]", "result": "binds"}]}
{"molecule": "B5", "values": [{"measurement": "binding result", "setting": "[3]", "result": "binds"}]}
{"molecule": "B6", "values": [{"measurement": "binding result", "setting": "[3]", "result": "binds"}]}
{"molecule": "B7", "values": [{"measurement": "binding result", "setting": "[3]", "result": "binds"}]}
{"molecule": "B8", "values": [{"measurement": "binding result", "setting": "[3]", "result": "binds"}]}
{"molecule": "B9", "values": [{"measurement": "binding result", "setting": "[3]", "result": "binds"}]}
